± gives the standard deviation.

The nature of the series: protein stability index of a GFP-peptide fusion (GPS, HEK-293T) (PSI 1-6); higher = more stable.
[1] abbreviates: treatment: DMSO, c terminus: a fixed tail appended.
Setting [2] is: treatment: MLN4924 1 uM, 8 h, c terminus: a fixed tail appended.
[3] abbreviates: treatment: DMSO, c terminus: native.
The mark [4] stands for this setting: treatment: MLN4924 1 uM, 8 h, c terminus: native.
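Note: 24-mer peptide tiles fused after GFP, lentivirally expressed, FACS-sorted into six equal bins by GFP/DsRed ratio, decoded by Illumina sequencing, PSI is the read-weighted mean bin number.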

With IAAGEVIQRPANAIKEMIENCLDA [MLH1], the protein stability index reads like this: under setting [1], 4.26 ± 0.18; under setting [2], 4.3 ± 0.34.

With IAHRGERRGIGGIFFDDLDSPSKE [CPOX], the protein stability index came to 4.57 ± 0.4 under setting [1] and 4.72 ± 0.21 under setting [2].

ICNNKWFTDTSIILFLNKKDLFEE [GNAI1]: the protein stability index runs as follows: under setting [1], 3.06 ± 0.97; under setting [2], 2.83 ± 0.45.

Regarding IDAVPVDENLFTGEDLDELEEELN [ZC3H15], the protein stability index worked out at 5.53 ± 0.21 under setting [1] and 5.51 ± 0.19 under setting [2].

Regarding IEVFDPDANTWRLYGGMNYRRLGG [KLHL20], the protein stability index reads like this: under setting [1], 2.38 ± 0.45; under setting [2], 2.17 ± 0.26.

On to IFAGVHDEKAKPRDRQQAPGLGQE [TLE6], for which the protein stability index runs as follows: under setting [1], 4.73 ± 0.2; under setting [2], 4.81 ± 0.065.

With IFNNVMTLCAMLPLLLFTYLNSFL [SLC29A1], the protein stability index is 3.25 ± 0.25 under setting [1] and 3.23 ± 0.2 under setting [2].

Consider IFSVTALDPDSKENAQIIYSLAED [PCDHGA10], for which the protein stability index is, setting by setting: under setting [1], 3.1 ± 0.47; under setting [2], 3.21 ± 0.19.

IFTTPNFDETSSATTISTSEDGSY [KMT2E] yielded a protein stability index under setting [1] of 4.75 ± 0.13 and a protein stability index under setting [2] of 4.67 ± 0.26.

Consider IFYFVIQRKKWVDLAWMITFYVRF [FADS1], for which the protein stability index is, setting by setting: under setting [1], 2.6 ± 0.72; under setting [2], 2.93 ± 0.94.

For IGEEVRQLMEKLREKQLSHSLRAV [BEX1], the protein stability index was 2.68 ± 0.14 under setting [1] and 2.82 ± 0.22 under setting [2].

For IIYKQTKGGVQNFNKDLVQDCGFE [CEP70], the protein stability index under setting [1] was 1.96 ± 0.42 and the protein stability index under setting [2] is 2.66 ± 0.22.

For the sequence IKKKGWRRSSLVITTKIFWGGKAE [KCNAB2], the protein stability index by setting is: under setting [1], 2.51 ± 0.55; under setting [2], 2.75 ± 0.64.

In the case of IKPSNIFISRTSIPNAASEEGDED [WEE1], the protein stability index reads like this: under setting [1], 4.71 ± 0.24; under setting [2], 4.97 ± 0.27.

As to IKVEQATKPSFESGRRGPPPPPRS [RBMX], the protein stability index reads like this: under setting [1], 4.06 ± 0.36; under setting [2], 4.17 ± 0.34.

Regarding ILESSQTLLSVLKREAGNLTKATA [SSNA1], the protein stability index by setting is: under setting [1], 2.69 ± 0.46; under setting [2], 2.99 ± 0.29.

In turn, ILHPELTVDSMIPAYATTRIRSQI [GDAP1] had a protein stability index under setting [1] of 2.52 ± 0.2 and a protein stability index under setting [2] of 2.55 ± 0.17.

For the sequence ILREELQKQRLREILEQQQQERND [ZNF277], the protein stability index under setting [1] was 4.4 ± 0.51 and the protein stability index under setting [2] turned out to be 4.32 ± 0.33.

As to ILTFLRAGKLRLLREMCALSFQEE [KCNG1], the protein stability index under setting [1] was determined as 3.24 ± 0.69 and the protein stability index under setting [2] was determined as 2.19 ± 0.28.

In the case of IMNEKCVVENAEKILGYLNTNVLS [SLC6A17], the protein stability index was 2.92 ± 0.35 under setting [1] and 2.47 ± 0.5 under setting [2].

Turning to INDEMQAKGIPQRAPPKRKRKRVK [PCMTD1], the protein stability index is 5.51 ± 0.23 under setting [1] and 5.36 ± 0.24 under setting [2].

INKEELEGNSMRCGRKLAKDGEYC [GMCL1] had a protein stability index under setting [1] of 4.04 ± 0.36 and a protein stability index under setting [2] of 4.15 ± 0.49.

On to INRWRFLLQCLEDLDANLRKLNSR [CRY1], for which the protein stability index was 2.06 ± 0.16 under setting [1] and 2.45 ± 0.15 under setting [2].

In the case of IPKPQSTGWFGGGFTSYLGFGDED [MIA2], the protein stability index under setting [1] was found to be 3.14 ± 0.16 and the protein stability index under setting [2] turned out to be 3.53 ± 0.55.

As to IPYFITLGTELAERQGNGQQAMSL [KCNA3], the protein stability index turned out to be 3.03 ± 0.59 under setting [1] and 3.01 ± 0.37 under setting [2].

As for IREDEVHRLGSPYGHCTAGGEGVE [SCNN1D], the protein stability index is 4.8 ± 0.26 under setting [1] and 4.85 ± 0.11 under setting [2].

As for IRKERKRLKLMQQNPAGELEGFQA [ATE1], the protein stability index runs as follows: under setting [1], 3.87 ± 0.65; under setting [2], 3.76 ± 0.32.

Regarding ISAHKPLLISSCDWMAAMFGGPFV [RHOBTB2], the protein stability index is, setting by setting: under setting [1], 2.51 ± 0.57; under setting [2], 2.44 ± 0.2.

Turning to ISFGQLSDRFGRKKVYLTGFALDI [SLC22A15], the protein stability index runs as follows: under setting [1], 2.97 ± 0.43; under setting [2], 2.73 ± 0.59.

As for ISGREVFEFRPELVNDDDEEADDT [ZC3H15], the protein stability index is 5.51 ± 0.26 under setting [1] and 5.47 ± 0.16 under setting [2].

Take ISLMYGGSKRKSSFFSSPPYFED [SLA]: the protein stability index by setting is: under setting [3], 2.22 ± 0.22; under setting [4], 2.27 ± 0.27.

In the case of ISVLAFSVCFIFTITIGMFPAVTV [SLC29A1], the protein stability index by setting is: under setting [1], 2.96 ± 0.13; under setting [2], 2.92 ± 0.32.

As for ISVTAYQNPQITQLKIAANPFAKG [TBX6], the protein stability index reads like this: under setting [1], 2.33 ± 0.22; under setting [2], 2.36 ± 0.16.

For ISYLVLSMISMGLFSIAPLIYGSM [JAGN1], the protein stability index is 2.91 ± 0.46 under setting [1] and 3.19 ± 0.17 under setting [2].

As for ITCLTCQGTGYIPTEQVNELVALI [TMEM106C], the protein stability index came to 2.17 ± 0.3 under setting [1] and 2.2 ± 0.27 under setting [2].

ITGLPLDNPSVLSGPMQAALQAAA [SMG5]: the protein stability index under setting [1] was found to be 3.08 ± 0.2 and the protein stability index under setting [2] turned out to be 3.11 ± 0.082.

Regarding ITTDNLQCRERREHPNLVRDHVET [TEKT4], the protein stability index under setting [1] came out at 4.35 ± 0.085 and the protein stability index under setting [2] turned out to be 4.44 ± 0.17.

IVDPTTGKRYCRGKVLGKGGFAKC [PLK2]: the protein stability index turned out to be 2.63 ± 0.38 under setting [1] and 2.92 ± 0.16 under setting [2].

Turning to IVEVLGIPPAAMLDQAPKARKYFE [DYRK1B], the protein stability index under setting [1] turned out to be 2.65 ± 0.42 and the protein stability index under setting [2] came to 2.93 ± 0.14.

With IYDNAVQGLRRHEILQWVLQTDSQ [LRRC59], the protein stability index reads like this: under setting [1], 2.56 ± 0.2; under setting [2], 2.64 ± 0.35.

Take IYGGELGPMMKLKRHFVAQKYKKQ [ACSBG2]: the protein stability index was 2.49 ± 0.2 under setting [1] and 2.85 ± 0.25 under setting [2].

Sequence KAPAKKANSTTTAGRDHFLTCGV [BRD3] yielded a protein stability index under setting [3] of 2.5 ± 0.11 and a protein stability index under setting [4] of 2.74 ± 0.26.

Take KASNPDLKLWEIGKIIGGMWRDLT [SMARCE1]: the protein stability index is, setting by setting: under setting [1], 3.42 ± 1.9; under setting [2], 2.55 ± 0.64.

As for KAVQYEEKNPCRTLCCFCCPCLK [STX11], the protein stability index is, setting by setting: under setting [3], 3.59 ± 0.36; under setting [4], 3.7 ± 0.084.

In the case of KDAALATALGDKKSLEGDLEDLKD [LMNB1], the protein stability index reads like this: under setting [1], 5.42 ± 0.36; under setting [2], 5.89 ± 0.14.

Regarding KDGMAFQEALDPGPFDQGSPFAQE [ELF3], the protein stability index turned out to be 4.65 ± 0.69 under setting [1] and 4.94 ± 0.12 under setting [2].

For KDGNTPLHVAARYGHELLINTLIT [ANKRD44], the protein stability index turned out to be 2.19 ± 0.15 under setting [1] and 2.3 ± 0.46 under setting [2].

In the case of KDMATGKSKGYGFVSFFNKWDAEN [TIA1], the protein stability index under setting [1] stood at 2.44 ± 0.3 and the protein stability index under setting [2] is 2.94 ± 0.28.

In the case of KDRETSKVIYDFIEKTGGVEAVKN [WASL], the protein stability index was 3.28 ± 0.068 under setting [1] and 3.37 ± 0.078 under setting [2].

KDVSRCVAERKYTQEQARKEFQQV [SMOC2]: the protein stability index is, setting by setting: under setting [1], 4.49 ± 0.16; under setting [2], 4.51 ± 0.38.

In the case of KEKQSRDFQGRILSVDPEEEREEG [RHOBTB1], the protein stability index reads like this: under setting [1], 5.25 ± 0.24; under setting [2], 5.46 ± 0.55.

For KEMARKVIEHCSNFKEENMDTSR [ZER1], the protein stability index worked out at 3.77 ± 0.32 under setting [3] and 4.16 ± 0.61 under setting [4].

With KENAAAPSPVRAPAPSPAKEERKT [PALM], the protein stability index turned out to be 5.45 ± 0.24 under setting [1] and 5.53 ± 0.23 under setting [2].

Regarding KERKLECLPPEPSPDDPESVKIIF [FAF2], the protein stability index is, setting by setting: under setting [1], 3.97 ± 0.22; under setting [2], 4.04 ± 0.16.

KETELPFPKQILDQNNVIENEETG [MIA2] yielded a protein stability index under setting [2] of 5.09 ± 0.62.

On to KGKAGRVDLVDESGYVSGYKHAGT [TPPP], for which the protein stability index by setting is: under setting [1], 4.32 ± 0.12; under setting [2], 4.57 ± 0.18.

With KGKFSTDTKGKPTSRTQVYKPPAL [ZC2HC1A], the protein stability index worked out at 3.77 ± 0.19 under setting [1] and 3.8 ± 0.15 under setting [2].

With KHFCPRAPVILVGCQLDLRYADLE [RHOBTB2], the protein stability index turned out to be 2.3 ± 0.65 under setting [1] and 2.52 ± 0.59 under setting [2].

For the sequence KHLNASNPTEPATIIFTAAREGRE [TOR1AIP2], the protein stability index reads like this: under setting [1], 4.13 ± 0.2; under setting [2], 4.22 ± 0.27.

KHNHSKSTWLILHHKVYDLTKFLE [CYB5A]: the protein stability index is 2.6 ± 0.55 under setting [1] and 2.49 ± 0.41 under setting [2].

Sequence KILLTKSENARLVLQIDNAKLAAD [KRT36] had a protein stability index under setting [1] of 2.99 ± 0.15 and a protein stability index under setting [2] of 3.08 ± 0.51.

As to KIWLVVPSLLELAWEKLLAAFPNL [KLHDC10], the protein stability index reads like this: under setting [1], 2.84 ± 0.16; under setting [2], 2.73 ± 0.11.

Turning to KIYAYPSNITSETGFRTISSLEEI [TMEM192], the protein stability index is, setting by setting: under setting [1], 2.59 ± 0.15; under setting [2], 2.9 ± 0.3.

As for KKDRPLARRKSELPQDPHTKKALE [PPP2R5C], the protein stability index is, setting by setting: under setting [1], 5.11 ± 0.2; under setting [2], 4.96 ± 0.12.

On to KKFRSSTSSSLGDKSEYLEMEEGV [KCNA4], for which the protein stability index reads like this: under setting [1], 4.6 ± 0.37; under setting [2], 4.91 ± 0.28.

Regarding KKNHEEEMKEFSSQLAGQVNVEMD [KRT15], the protein stability index is 5.6 ± 0.12 under setting [1] and 5.59 ± 0.23 under setting [2].

As to KLIRDFDEKQQEANETLAEMEEEL [VTI1B], the protein stability index by setting is: under setting [1], 4.89 ± 0.32; under setting [2], 5.3 ± 0.19.

On to KLLPHQPRIVEMKKGSNGYGFYLR [PDZK1], for which the protein stability index turned out to be 2.37 ± 0.12 under setting [1] and 2.47 ± 0.6 under setting [2].

In the case of KLPSRRQPGLLHLQSCGDLHTFTP [FAM189A2], the protein stability index by setting is: under setting [1], 4.92 ± 0.19; under setting [2], 4.94 ± 0.15.

In the case of KLRAMKELSEAAEAQHGPHSAVAR [STX11], the protein stability index by setting is: under setting [1], 4.51 ± 0.13; under setting [2], 4.6 ± 0.17.

On to KLRLFDTPHTPKSLLSKARGIDSS [WEE1], for which the protein stability index by setting is: under setting [1], 3.19 ± 0.092; under setting [2], 3.26 ± 0.32.

Consider KMDMSVLEISGIIMSRVNAYQQGV [PHTF1], for which the protein stability index was determined as 2.5 ± 0.54 under setting [1] and 2.48 ± 0.49 under setting [2].
